Test results from patent US20240294670A1 (University of Texas, published 2024).

Tests used:
recombinant human CHI3L1 [1] = target: T1, recombinant human CHI3L1 (human, UniProt P36222 22-383); assay: ELISA: human CHI3L1 coated on the plate, B cell culture supernatant 100 ul/well, A450
T1 construct: His-tagged recombinant protein (Sino Biological 11227-H08H, or in-house HEK293 protein with 6xHIS-tag and avi-tag); also called hCHI3L1; hChi3l1
Protocol: (§1) FIG. 7. The ELISA binding of the supernatant antibody to the human CHI3L1. (hCHI3L1), and mouse CHI3L1 (mCHI3L1). The CHI3L1 protein was coated on maxi-sorp 96-well plates, cell culture supernatant (100 ul/well) was used for binding on the antigen coated plate. Binding signals (A450 nm) are shown in Y-axis and CHI3L1 mAbs are shown on X-axis.
(§2) Binding affinity of anti-CHI3L1 monoclonal antibodies to the CHI3L1 protein using ELISA method. Binding of CHI3L1 by monoclonal antibodies was first screened by ELISA using supernatants collected from the B cell cultures and cross reactivity to mouse CHI3L1 protein was determined (FIG. 7).

recombinant mouse CHI3L1 [2] = target: T2, recombinant mouse CHI3L1 (mouse, UniProt Q61362 30-389, limits assumed); assay: ELISA: mouse CHI3L1 coated on the plate, B cell culture supernatant 100 ul/well, A450
T2 construct: His-tagged; also called mCHI3L1; mChi3l1
Protocol: as §1, §2

recombinant human CHI3L1 [3] = target: T1, recombinant human CHI3L1; assay: Octet BLI
recombinant mouse CHI3L1 [4] = target: T2, recombinant mouse CHI3L1; assay: Octet BLI
recombinant human CHI3L1 [5] = target: T1, recombinant human CHI3L1; assay: BLI (Octet), mAb on protein A sensor, CHI3L1 in solution, 1:1 fit
Protocol: (§3) FIG. 8. Kinetic binding sensorgrams collected on Octet instrument for determination of kon and koff rates for each CHI3L1 antibody.
(§4) Binding affinity of anti-CHI3L1 monoclonal antibodies determined using Bio-layer interferometry (BLI), a sensor-based Octet instrument. […] Following by kinetics buffer washing to baseline, the loaded biosensors were exposed to a series of recombinant CHI3L1 protein at 0.1-200 nM range and background subtraction was used to correct for any background from sensor drifting. All experiments were performed with shaking at 1,000 rpm. Background wavelength shifts were measured from reference biosensors that were loaded with antibody and followed with buffer without antigen. ForteBio's data analysis software was used to fit the data to a 1:1 binding model to extract an association rate and dissociation rate. The KD was calculated using the ratio of koff/kon and the estimated values of KD for CHI3L1 mAbs in Table C.

recombinant mouse CHI3L1 [6] = target: T2, recombinant mouse CHI3L1; assay: as above
Protocol: as §3, §4

T1 sequence (P36222 22-383 limits assumed): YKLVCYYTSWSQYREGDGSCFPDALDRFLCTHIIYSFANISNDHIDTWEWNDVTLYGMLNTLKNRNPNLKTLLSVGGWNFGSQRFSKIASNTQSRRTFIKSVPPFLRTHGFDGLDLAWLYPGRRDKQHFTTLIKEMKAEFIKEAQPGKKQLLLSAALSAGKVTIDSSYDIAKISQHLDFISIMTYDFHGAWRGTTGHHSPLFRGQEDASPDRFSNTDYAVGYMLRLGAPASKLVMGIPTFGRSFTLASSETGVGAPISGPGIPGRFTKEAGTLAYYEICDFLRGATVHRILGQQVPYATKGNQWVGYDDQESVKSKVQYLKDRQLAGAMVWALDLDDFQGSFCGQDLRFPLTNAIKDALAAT
T2 sequence (Q61362 30-389 limits assumed): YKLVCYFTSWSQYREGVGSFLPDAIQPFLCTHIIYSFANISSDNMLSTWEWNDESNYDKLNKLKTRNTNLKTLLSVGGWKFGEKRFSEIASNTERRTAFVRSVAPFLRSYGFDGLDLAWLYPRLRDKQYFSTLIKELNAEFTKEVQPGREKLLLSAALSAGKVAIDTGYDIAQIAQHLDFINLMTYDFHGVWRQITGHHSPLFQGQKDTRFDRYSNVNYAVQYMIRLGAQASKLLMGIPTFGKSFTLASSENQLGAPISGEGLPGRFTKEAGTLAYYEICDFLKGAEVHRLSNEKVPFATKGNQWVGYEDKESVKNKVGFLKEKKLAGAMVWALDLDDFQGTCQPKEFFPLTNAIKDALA

Kd (recombinant human CHI3L1 [5]) [nM] | koff (recombinant human CHI3L1 [5]) [s⁻¹] | kon (recombinant human CHI3L1 [5]) [M⁻¹ s⁻¹] | Kd (recombinant mouse CHI3L1 [6]) [nM] | koff (recombinant mouse CHI3L1 [6]) [s⁻¹] | kon (recombinant mouse CHI3L1 [6]) [M⁻¹ s⁻¹] | Binder | also measured
 |  |  |  |  |  | anti-CHI3L1 monoclonal antibody C28 (antibody, V domains shown, Rabbit mAb) VH: QQLKESGGDLVKPGASLTLTCTASGFSFSSGYYMCWVRQAPGKGLEWIACIGASSGLTNYASWAKGRFTISKTSSTTVTLRMTSLTAADTATYFCARVYLGGADYEQFNLWGPGTLVTVSS VL: AQVLTQTPSSASEPVGGTVTIKCQAGESVSSRVAWYQQKPGQPPKLLIFDASALASGVSSRFTGSGSGTQFTLTISDLECADAATYYCQNYYGISGVAFGGGTEVVVK | binding result (recombinant human CHI3L1 [1]): binds; binding result (recombinant mouse CHI3L1 [2]): no binding
 |  |  |  |  |  | anti-CHI3L1 monoclonal antibody C29 (antibody, V domains shown, Rabbit mAb) VH: QEQLVESGGDLVKPEGSLTLTCTASGFSFSDNYWMCWVRQAPGKGLEWIGCIYIGFSGTTYYASWAKGRFTISKASSTTVTLQMTSLTGADTATYFCARGVFYVGSGYWYYLNLWGPGTLVTISS VL: DVVMTQTPSSVSAAVGGTVTIKCQASQSIASYLAWYQQKPGQPPKLLIYRASTLASGVPSRFKGSGSGTEYTLTISDLECADAATYYCQTTYVGGSGNAFGGGTKVEIK | binding result (recombinant human CHI3L1 [1]): binds; binding result (recombinant mouse CHI3L1 [2]): no binding
 |  |  |  |  |  | humanized C59 antibody C59Hu (antibody, V domains shown, Humanized form of C59) VH: EVQLVESGGGLVQPGGSLRLSCAASGFTISSDYYMCWVRQAPGKGLEWIGCIYIGSGTDTYYADSVKGRFTISKHNSKNTLYLQMTSLRAEDTAVYYCARDKGWSNAWGFYFQLWGQGTLVTVSS VL: DIQMTQSPSSLSASVGDRVTITCQASQSIGKYLNWYQQKPGKAPKLLIYSSSSLASGVPSRFSGSGFGTDFTLTISSLQPEDFATYYCQQGYSYVDLENGFGGGTKVEIK | Kd (recombinant human CHI3L1 [3]): 4.5 nM; koff (recombinant human CHI3L1 [3]): 0.000635 s⁻¹; kon (recombinant human CHI3L1 [3]): 141000 M⁻¹ s⁻¹; Kd (recombinant mouse CHI3L1 [4]): 4.44 nM; koff (recombinant mouse CHI3L1 [4]): 0.00095 s⁻¹; kon (recombinant mouse CHI3L1 [4]): 214000 M⁻¹ s⁻¹
< 0.001 | < 1e-07 | 189000 | 7.92 | 0.000592 | 74800 | anti-CHI3L1 monoclonal antibody C56 (antibody, V domains shown, Rabbit mAb from single B cells, expressed as full length IgG in HEK293) VH: QEQLVESGGDLVKPGASLTLTCTASGFSFSSSYWICWVRQAPGKGLELIACIYPSSSGSTDYASWAKGRFTISKTSSTTVTLQMTSLTAADTATYFCARDIPYNIHGYTTGFNLWGPGTLVTVSS VL: ALVMTQTPASVEAAVGGTVTIKCQASQSIGSNLAWYQQKPGQPPKLLIYSASTLASGVSSRFKGSRSGTEFTLTISDLECADAATYYCQFTYYGSSDVDVFGGGTKVVVE | 
 |  |  |  |  |  | humanized C7 antibody C7Hu (antibody, V domains shown, Humanized form of C7) VH: QVQLVESGGGVVQPGRSLRLSCAASGFTLTTYWVCWVRQAPGKGLEWVACIDAGSITYYTTWARGRFTISRDNSTNTLFLQMNSLRAEDTAVYYCARDAHYTYALVLWGRGTLVTVSS VL: DIQMTQSPSSVSASVGDRVTIKCQASEDIESYLAWYQQKPGKAPKLLIYDASDLASGVPSRFSGSGSGTDFTLTISSLQPEDAATYYCQGYSYGSSYVGFGGGTKVEIK | Kd (recombinant human CHI3L1 [3]): 0.88 nM; koff (recombinant human CHI3L1 [3]): 0.000492 s⁻¹; kon (recombinant human CHI3L1 [3]): 559000 M⁻¹ s⁻¹
< 0.001 | < 1e-07 | 137000 | 3.54 | 0.000273 | 77300 | anti-CHI3L1 monoclonal antibody C53 (antibody, V domains shown, Rabbit mAb from single B cells, expressed as full length IgG in HEK293) VH: QEQLVESGGDLVKPGASLTLTCTASGFSFSSSHYMCWVRQAPGKGLEWIACIYLGDDSTYYASWVNGRFSISKTSSTTVTLQMTSLTAADTATYFCARHGYNLAIHNYIIWGPGTLVTVSS VL: DVVMTQTPSSVEAGVGGTVTIKCQASESSSRHLSWYQQKPGQRPKLLIYWASTLASGVPSRFQGSGSGTEFTLTISDLECADAATYYCQSYYGLSNNGWRYAFGGGTEVVVK | 
1.42 | 0.000235 | 166000 | 3.43 | 0.000402 | 117000 | anti-CHI3L1 monoclonal antibody C59 (antibody, V domains shown, Rabbit mAb from single B cells, expressed as full length IgG in HEK293; also called clone 59; C59mAb) VH: QSVEESGGDLVKPGASLTLTCTASGFTISSDYYMCWVRQAPGKGLEWIGCIYIGSGTDTYYASWAKGRFTISKTSSTTVTLQMTSLTAADTATYFCARDKGWSNAWGFYFQLWGPGTLVTVSS VL: DPVLTQTPASVEVPVGGTVTINCQASQSIGKYLNWYQQKPGQPPKLLIYSSSSLASGVSSRFKGSGFGTQFTLTISGVQCADAATYYCQQGYSYVDLENGFGGGTELEIL | 
